This data set in a line: soluble on expression in E. coli; label from the status in PepcDB or PDB records.
Take “MSLARLQFQLKVDGLEDESLVVRGFEGQESLSDSVWRCEPCYGFRYQVDLASALSNLTAEQFVDQTAHLTILRDGQVVQQINGIVRQLSKGDTGHRHTFYSLTLVPALERLSLRSNSRIFQQQSVPEIISILLQEMGIEDYAFALKRECAQREFCVQYRETDLQFLHRIAAEEGLVYSHLHEAQKHTLLFTDSSDSQPKLAKPVPYNALAGGEINLPYVVDLQFKTTAQVSHTELKDYSFKKPAYGFTQRTQGKDIAYQQPNYEHFDAPGRYKDDANGKAFSQIRLEYLRRDALLADAKSDEPLLLAGVRFDLQDHLDHAMNRDWLVVQANHQGTQPQALQEEGGSGATTYSNQLKLIPAHITWRARPCAKPQVDGPMIATVVGPQGEEIYCDNFGRVKVHFPWDRYSSSNEKSSCWVRVAQEWAGSQYGSMAIPRVGHEVIVSFLNGDPDQPIITGRTYHATNTAPYALPDHKTKTVLRTETHQGQGYNELSFEDQAGSEQILLHAQKDWDALIEHDHTEVIRHDQHLTVDNDRFTRIQRNQHLTVEGEVRSKIALDSSHEVGASLQHKVGQRIAVEAGKEISLKSGAKIVVEAGAELTLKAGGSFVKVDAGGVHLVGPAINLNAGGSAGSGSAYGGQLAAAPRMLAQAKPVAELVQPDIAASMQSGAARVIDVASLPTMMPSSANNTANDEPVAEEKTPERILKSDLLKPSDELEKLAKRQASAYRQGNHSDEVKLLQEALIKLGFDLGKAGADGDFGSKTKTAIEQFQKSYQPSHQTHPSYSIGAVDGIVGKGTLLALDEALMDGWVYENNIYQIWPLGKTSEKYESAGRGPGVISTGNGDYGGASYGCYQMSSNLGVVQKYIQSSKFKEFFSGLNPATKEFNVVWQDIASRYPQEFREEQHQFIKRTHYDIQIGHLRGKGLLFEHNRAAVHDLIWSTSVQFGGRTNLIFNALNGQNMESMTDKDIIILVQDYKLVNTERLFKSSPSWWSDLKKRAVSEKKALLELEIDGLEVDIKEGGSHHHHHH”: the “soluble on expression in E. coli” value is given as “not soluble”. The value for “MGSDKIHHHHHHMESVGDVLKRQPSRFYYQDLVQKIMKDPDVAAFIQQESLTPKELNRSISKFNQYITERDKFLRGDTDYIAKGYKPILVKNHGYADVSYEETPELIAAEKEAAIKNRLKLINLPASLKKASLAQVDLDDLGRLPVFEKLLAFVEQYPAIRKGLYLYGDFGVGKSFMVAALAHDLSEKRGVSSTLLHYPSFVIDVKNAISDGNVKTLVDEIKLSEVLILDDIGAEQSTVWVRDEILQVILQYRMQENLPTFFTSNFNFEDLEKHFAKVKHGNDETWEARRVMERIRYLAEETRLEGVNRR” was “not soluble”.

Consider “VPFDPGKIERAIAAAGQATGEFDPQQAQALAERVVERLPERACLDIERVQDLVERVLMEAGHYPTARAYVVYRERHGRLRRERKTLVDVAASMNEYLSREDWRVRANANQGYSLGGLILNVSGKVTANYWLDEVYDADIAAAHRDADLHIHDLDMLAGYCAGWSLRTLLNEGLNGVPGRVEAGPPKHLGSALGQMVNFLGTLQNEWAGAQAFSSFDTYLAPYVRKDRLDYASVRQALQEFIYNLNVPSRWGTQTPFTNLTFDWVCPDDLRDQVPRIGGEEMPFAYGELQAEMDLINRAYIEVMQAGDAHGRVFTFPIPTYNITHDFPWDSDNATRLFEMTARYGLPYFQNFLNSDMQPNQVRSMCCRLQLDVRELLKRGNGLFGSAEQTGSLGVVTINCARLGYRHRGDAAGLYRQLDHLLELAFASLELKRKVIQQHMDAGLYPYTRRYLGTLRNHFSTIGVNGLHEMVRNFSDDREGLHSEAGREMALALLDHVRARLVGFQEDSGHLYNLEATPAEGTTYRFAREDRKRYPRILQAGTPEAPYYTNSSQLPVGFTDDPFEALELQDALQCKYTGGTVLHLYMAERISSAEACKTLVRTALGRFRLPYLTVTPTFSICPRHGYLAGEHEFCPKCDEELLQRSTPKSCCGGC”, for which the “soluble on expression in E. coli” value is reported as “not soluble”.

As for “MGSDKIHHHHHHMQQAQLPLEAILYQYDLYPEAVEDHGENVKKLVTKHGLFALKKTQMTRSQADWFVYCMRKLDRLGYRKVVPLVPTKFGEYTLTDRDTSFYVMPWIESIPYNARESQEEKLADQLGVIHRLTVKTQPFSKEQLEASYNELRDRWDSRWLTMNRFADQAERKTYMSPYELTLLTHFSFLEHMAHTAKESLEAWYETCLEKEKYRSVLCHGRLSRAHAFFNERHEPLLFNFERAALDTPARDLASFFRHSFPHALWSEEEGHRWLYRYEQHLPLLEEEKRLLHAYLSFPDPVIYGIEAYQQQSGPPSEVKHVKRLEKRLLNLRRVERFSKSLLPTPAINESGLS”, the “soluble on expression in E. coli” value is “not soluble”. For the sequence “MTRVIIDGDACPVVDSVIELTTGTGIFVTILRSFSHYSNKVLPNHVETIYIDDGPDAVDYKIVKLATPEDIVITQDYGLASLLLSKVKIVMHHKGHLYRSSNIDMLLQQRYNNAQIRKQGGRHKGPPPFSKEDKKQFERAFKSVIKQLLEHHHHHH”, the “soluble on expression in E. coli” value is given as “not soluble”. For “GHMPGRAPGSTLARVGSIPAGDDVLDPDEPTYDLPRVAELLGVPVSKVAQQLREGHLVAVRRAGGVVIPQVFFTNSGQVVKSLPGLLTILHDGGYRDTEIMRWLFTPDPSLTITRDGSRDAVSNARPVDALHAHQAREVVRRAQAMAY”, the “soluble on expression in E. coli” value is given as “soluble”. As to “MSELKDIIAAVTPCKGADFELQALKIRQPQGDEVLVKVVATGMCHTDLIVRDQKYPVPLPAVLGHEGSGIIEAIGPNVTELQVGDHVVLSYGYCGKCTQCNTGNPAYCSEFFGRNFSGADSEGNHALCTHDQGVVNDHFFAQSSFATYALSRENNTVKVTKDVPIELLGPLGCGIQTGAGACINALKVTPASSFVTWGAGAVGLSALLAAKVCGASIIIAVDIVESRLELAKQLGATHVINSKTQDPVAAIKEITDGGVNFALESTGSPEILKQGVDALGILGKIAVVGAPQLGTTAQFDVNDLLLGGKTILGVVEGSGSPKKFIPELVRLYQQGKFPFDQLVKFYAFDEINQAAIDSRKGITLKPIIKIA”, the “soluble on expression in E. coli” value is recorded as “soluble”.

Turning to “MSLSENLIIFNAKVVTPLGFSARKGKEMAELRILEKATVEVVDGIITYVGPNRGEVRDGYYHHFWHYNARGKCLLPGFVDSHTHFVFGGERAEEFSWRLKGESYMSIMQRGGGIASTVQATRELSFIHLRSKAEGLLKKMTAMGITTVEGKSGYGLNRETELLQLKVMRSLNKDEGVRVDIVPTFLGAHALPDEYKERPDDYIDFLIRELLPVIQRDSLAEFCDVFCEEGVFSIEQSRRLLTAAGDYGLLPKLHADEIVPLGGAELAAELGAVSADHLLHASDAGIEAMARKGVVATLLPLTAFALKEPYARGRDMIDAGCAVALATDLNPGSCFSGSIPLTFALACIHMQLTVEEAITALTLNGAAALNRADSIGSIEVGKKGDFVVLDSDNYHILPYYVGMNCVNTTIKGGMLYPSEGHHHHHH”, the “soluble on expression in E. coli” value is “soluble”. The entry for “MGFLNKLLSSEGPRKPKVKFDLQKCKVLLKGGENRIRLQKSKLAVCNLLASPVPALKNLFNKNSVKLQQREVAVLLEGGKDELARIRAEQMVRDELLIESYEIVEVLCETLLTRHNLLALNFHATKENPYPPLPPEIAEAVCSIAFASCRLDASELQTLTEMLASRFGPELIDSACAGQPSQRVWGVNSLVNPRLYSKLLYSVPDGNVVLQKLQDIADMFQLEWKAPAEFEELKDHSVLDSTASTPVFSGNAQRARYLPEASSFSDEKIGDDVFCTNESEQTEEGRDPSDDLSARLEALKRNR” is “not soluble”; for “MSEANSNSEFQTFIEQENQKAAIQAAISKLTETCWDKCVGKPGSKLDRAESECIANCAERFLDSSSFIMQRLMKKQ” it is “soluble”. The value for “MGSDKIHHHHHHMVKGLRQLNNRVDILSLPGAEPEVEEAKAIDEKVNQPPTKKSSFSILSDLTKHVPEFVFELFELAFNLIAVIRLRKTVKEKNITLIYERYSLFMFASVWWAKRHNLPIVLEINDSCQVQRVRSLTFKKLAAKIEGWIFKNATGLVFISTRFKEVAEQAYGEISNSVVSPNGADLDKFIIDETSGLALRSKLGVENKIVLGYVGAFVHWHGIDWFVDLACQKLKETPELVLLLVGDGVAFEGIKKRVIEAGVESQVILPGKVPHHEVSSFLSAMDLGILPDSNDYGSPMKLFEFMAMGKGMIAPDFSPIAEVVQDNATSWLFPASNKQACIDKVFEIVNDREAHQEVGKKARAYIENERQWKHNAEQLLSLVTAREKA” was “not soluble”; that for “MSTEIKTQVVVLGAGPAGYSAAFRCADLGLETVIVERYNTLGGVCLNVGCIPSKALLHVAKVIEEAKALAEHGIVFGEPKTDIDKIRTWKEKVINQLTGGLAGMAKGRKVKVVNGLGKFTGANTLEVEGENGKTVINFDNAIIAAGSRPIQLPFIPHEDPRIWDSTDALELKEVPERLLVMGGGIIGLEMGTVYHALGSQIDVVEMFDQVIPAADKDIVKVFTKRISKKFNLMLETKVTAVEAKEDGIYVTMEGKKAPAEPQRYDAVLVAIGRVPNGKNLDAGKAGVEVDDRGFIRVDKQLRTNVPHIFAIGDIVGQPMLAHKGVHEGHVAAEVIAGKKHYFDPKVIPSIAYTEPEVAWVGLTEKEAKEKGISYETATFPWAASGRAIASDCADGMTKLIFDKESHRVIGGAIVGTNGGELLGEIGLAIEMGCDAEDIALTIHAHPTLHESVGLAAEVFEGSITDLPNPKAKKK” was “soluble”; that for “TMNPLYSLKRSEERRNVVLSRMLDEKYISKEEYDAALKEPIVASYHGAKFEFRADYVTEMVRQEMVRRFGEENAYTSGY” was “not soluble”. The entry for “MGSDKIHHHHHHMSLSNMQVFNDYIMPATIKSLDQMIDKFNAGSAGAIVLSSEGMTGDFMRESFFASLAAAQRRVNRKGANGAASATDLSELTGSKVKIAGGFGPVRYEPSQMTWLQRPTQQGVLAASTAFAELLLQDQLNTAIAALVAALSNNAAVTNDVSGSAGMTYGAINSAHAKFGDASGQIVANVMTGTVAHKLIGDNLTNGQRLFTAGNVNVIDILGKAVIVTDAPALYEAGTPNKSKVLGLVPGAATVGNTSDIITNVETTNGKERIETTFQADYSFSLGLKGYGWDEANGGASPTDAEIATGTNWDKVAEFDKMTAGVIAVADADQ” is “not soluble”; for “MSLYDELKNEFKRVLLDRQLTEELAEECATAFTDTTQAGAYSHGINRFPRFIQQLEQGDIVPNAIPTKVLSLGSIEQWDAHQAIGNLTAKKMMDRAIELASQHGVGVIALRNANHWMRGGSYGWQAAEKGYIGICWTNALAVMPPWGAKECRIGTNPLIIAVPTTPITMVDMSCSMYSYGMLEVHRLAGRQTFVDAGFDDEGNLTRDPSIVEKNRRLLPMGFWKGSGLSIVLDMIATLLSNGESTVAVTEDKNDEYCVSQVFIAIEVDRLIDGKSKDEKLNRIMDYVKTAERSDPTQAVRLPGHEFTTILSDNQTNGIPVDERVWAKLKTLEGHHHHHH” it is “not soluble”. “MGSDKIHHHHHHMITHQDLKQLQSLTKVPALSILLPTHRTSPDNKQDPILVKNLVSEATKRLDKEFTSRQLEPLLKQLETLVSEIDYPHTLDGLALYVSHDFAKLYYLPFPVPARVVIDQTFATRDLVYGRHREHRYWVLLLSQASTRLLAGTGETLEEVNDENFPMQMTGPGATTPLPYETDSSYRDDRYRRFFQQVNSALTLYENDSLPLIVGGVERQISFFQEVSQNTQAMSPRGYAYAGTLRGNFDRATIHELTPQVWSIMQSVQEAQQAEALQALDDAMGTQSVVSTIGEVWRLAHEGRGKLLLVEKNYHVPAILTEDGRFELVDQPGGTDVMDDAVDEIIEVVLAKGGKVAIVDDEVLSIYQRIALIFRY”: the “soluble on expression in E. coli” value is reported as “not soluble”.

With “AIADIEVDIIEFKVPLENNKTIFIWDIQPTFTEAYIYESLWSVYSAFGDLYLLKVCPNATVAEPGFYALVKFYSSAQASKAQRATDKQCLFQSSPLKVRLSTKQNLSFYSSKPLCLSKCHNLANHYLGFGGWTTRIVTLKDLSNCVDAGCQEETGDQGVLLKYGCIMELSFPHHGMSCQGVGVAEEVLDSDQDPEEKLRKRGALMKRAKDKAMEVAFEKVLLLILGNGKVAIEIKIDPDEIVPEENSERVIKVNDISWTHIESADSNAEEDFLWDLTEDLPY”, the “soluble on expression in E. coli” value is on record as “soluble”.

For the origin of these results see the DeepSol protein solubility set.
